Laboratory results from patent US20220380471A1 (US Dept. of Health and Human Services, published 2022).
Residue numbers refer to the chain shown, from its start. Blank lines part the entries; values can stand above or below the binder they belong to.

Tests used:
IgG control = assay: phage ELISA
Outline: (§1)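 Camel VHH phage from libraries of eight individual camels went through 3 rounds of panning on recombinant B7H3-Fc protein. The recorded ELISA signal reflects binding of the selected phage to immobilised human or other-species B7H3, or to control proteins, in a phage ELISA.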

hB7H3-His [1] = target: T1, hB7H3-His (human, UniProt Q5ZPR3 29-461, limits assumed); assay: ELISA, purified VHH
T1 construct: not shown: His tag
T1 sequence (looked up): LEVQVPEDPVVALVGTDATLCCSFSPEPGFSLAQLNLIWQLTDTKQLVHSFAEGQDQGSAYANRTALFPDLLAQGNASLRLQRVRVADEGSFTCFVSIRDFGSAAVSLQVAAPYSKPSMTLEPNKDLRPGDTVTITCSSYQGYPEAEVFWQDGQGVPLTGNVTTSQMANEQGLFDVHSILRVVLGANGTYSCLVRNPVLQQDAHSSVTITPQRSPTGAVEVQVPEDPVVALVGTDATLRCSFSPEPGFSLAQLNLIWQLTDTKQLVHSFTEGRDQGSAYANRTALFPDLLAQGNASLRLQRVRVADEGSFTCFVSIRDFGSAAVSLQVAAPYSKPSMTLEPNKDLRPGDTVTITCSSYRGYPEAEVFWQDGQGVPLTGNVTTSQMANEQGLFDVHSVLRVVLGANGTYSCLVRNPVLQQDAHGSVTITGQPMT
Outline: (§2)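 Binding of the purified camel VHH nanobodies is given as the ELISA signal. The immobilised recombinant proteins included B7H3 fusion proteins and proteins other than B7H3. The nanobodies were isolated beforehand by phage panning on recombinant B7H3-Fc.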

monkey B7H3-His [2] = target: T2, monkey B7H3-His (monkey); assay: ELISA, purified VHH
T2 chain: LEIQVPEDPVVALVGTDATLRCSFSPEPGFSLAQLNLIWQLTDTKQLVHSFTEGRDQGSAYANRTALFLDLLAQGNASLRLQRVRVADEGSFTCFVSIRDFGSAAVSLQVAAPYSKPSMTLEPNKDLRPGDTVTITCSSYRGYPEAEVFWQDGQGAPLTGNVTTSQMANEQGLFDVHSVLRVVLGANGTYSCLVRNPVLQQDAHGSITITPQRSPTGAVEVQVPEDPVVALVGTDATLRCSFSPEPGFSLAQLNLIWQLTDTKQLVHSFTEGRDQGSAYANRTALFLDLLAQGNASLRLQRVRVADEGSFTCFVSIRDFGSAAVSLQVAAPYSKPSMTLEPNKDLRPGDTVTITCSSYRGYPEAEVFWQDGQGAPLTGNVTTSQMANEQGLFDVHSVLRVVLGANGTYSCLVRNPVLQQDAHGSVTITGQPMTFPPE
Outline: as §2

hB7H3-His [3] = target: T1, hB7H3-His; assay: ELISA, purified VHH; remark: listed apart in the source
Outline: as §2

rat B7H3-His [4] = target: T3, rat B7H3-His (rat, UniProt Q7TPB4 29-244, limits assumed); assay: ELISA, purified VHH
T3 construct: not shown: His tag
T3 sequence (looked up): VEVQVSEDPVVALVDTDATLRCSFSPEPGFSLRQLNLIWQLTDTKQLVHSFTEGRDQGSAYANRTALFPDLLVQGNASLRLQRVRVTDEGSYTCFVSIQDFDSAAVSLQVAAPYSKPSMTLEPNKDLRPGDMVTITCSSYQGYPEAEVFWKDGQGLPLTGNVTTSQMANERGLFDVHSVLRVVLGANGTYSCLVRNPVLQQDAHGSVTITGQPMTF
Outline: as §2

Non-relevant antigen [5] = assay: ELISA, purified VHH
Outline: as §2

monkey B7H3-His [6] = target: T2, monkey B7H3-His; assay: phage ELISA, cross-species
Outline: as §1

rat B7H3-His [7] = target: T3, rat B7H3-His; assay: phage ELISA, cross-species
Outline: as §1

mouse B7H3-His = target: T4, mouse B7H3-His (mouse, UniProt Q8VE98 29-244, limits assumed); assay: phage ELISA, cross-species
T4 construct: also called recombinant mouse B7H3-His protein; not shown: His tag
T4 sequence (looked up): T3 sequence (looked up) with R33A, A62S, D131N, L156V, M214L
Outline: as §1

human B7H3 = target: T5, human B7H3 (human, UniProt Q5ZPR3 29-466, limits assumed); assay: phage ELISA, cross-species
T5 construct: also called human B7H3 protein
T5 sequence (looked up): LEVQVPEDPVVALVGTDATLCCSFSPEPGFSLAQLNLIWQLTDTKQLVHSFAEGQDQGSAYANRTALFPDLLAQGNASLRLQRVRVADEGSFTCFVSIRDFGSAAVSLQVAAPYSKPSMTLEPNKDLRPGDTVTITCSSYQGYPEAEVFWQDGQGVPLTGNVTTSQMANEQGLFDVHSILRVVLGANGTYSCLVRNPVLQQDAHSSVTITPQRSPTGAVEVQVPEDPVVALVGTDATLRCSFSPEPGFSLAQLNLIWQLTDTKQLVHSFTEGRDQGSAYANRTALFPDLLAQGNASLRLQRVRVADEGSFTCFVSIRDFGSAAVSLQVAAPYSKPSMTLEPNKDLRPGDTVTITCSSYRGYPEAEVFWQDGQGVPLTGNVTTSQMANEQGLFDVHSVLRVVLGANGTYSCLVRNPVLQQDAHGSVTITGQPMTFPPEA
Outline: as §1

Non-relevant antigen [8] = assay: phage ELISA, cross-species
Outline: as §1

PD-L1 = assay: ELISA, purified VHH, cross-reaction
B7H3-hFc = target: T6, B7H3-hFc (human, UniProt Q5ZPR3 29-456); assay: ELISA, B7H3-hFc coated, VH-His-FLAG detected with anti-FLAG-HRP
T6 construct: also called recombinant B7H3-hFc; B7H3 ECD fused with human IgG1 Fc; not shown: human IgG1 Fc
T6 sequence: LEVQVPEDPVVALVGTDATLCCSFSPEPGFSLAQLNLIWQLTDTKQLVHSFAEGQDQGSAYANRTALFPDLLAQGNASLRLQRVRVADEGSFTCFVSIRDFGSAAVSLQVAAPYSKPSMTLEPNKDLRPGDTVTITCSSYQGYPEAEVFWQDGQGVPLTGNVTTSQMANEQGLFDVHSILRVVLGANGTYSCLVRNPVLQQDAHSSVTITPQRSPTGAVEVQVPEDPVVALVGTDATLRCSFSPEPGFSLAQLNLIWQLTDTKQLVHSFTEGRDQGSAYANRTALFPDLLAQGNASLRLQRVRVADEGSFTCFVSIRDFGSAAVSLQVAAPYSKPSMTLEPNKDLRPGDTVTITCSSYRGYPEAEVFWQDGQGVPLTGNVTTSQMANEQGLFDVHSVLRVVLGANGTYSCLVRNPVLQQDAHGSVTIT
Text: FIGS. 4A-4C: Binding properties of the B7H3 binders. (FIG. 4A) SDS-PAGE analysis of the purified A1 and B1 binders (VH-His-FLAG fusion) from E. coli. Two micrograms of purified B7H3-hFc, non-reduced (Non.) or reduced (Red.) by β-mercaptoethanol, were separated on an 8% SDS-PAGE gel. Protein bands were visualized by Coomassie blue R-250 staining. (FIG. 4B) Protein binding affinity measurement by ELISA. Five micrograms of B7H3-hFc were coated on the ELISA plate, and different concentrations of domain antibodies were incubated with the plate, and binding was detected by HRP conjugated anti-FLAG mouse monoclonal antibody M2. The binding curves were plotted using the software GraphPad Prism and the calculated EC50 values were determined by the software's algorithm of hyperbola one site binding. (FIG. 4C) Cell binding determination by flow cytometry. Ten microgram per mL domain antibody was co-incubated with one million cells. Antibody binding was visualized by APC conjugated anti-FLAG monoclonal antibody. The curves labelled “1” represent cells stained with secondary antibody only; the curves labelled “2” represent cells stained with A1 or B1 domain antibody.
The VH coding sequences of binders A1 and B1 were fused with His-FLAG tag at their C-termini and cloned into an E. coli expression vector. […] The purified yield was 2 mg/L (A1) and 10 mg/L fermentation (B1) respectively. […]

Sequence of PD-L1 (Q9NZQ7 whole entry): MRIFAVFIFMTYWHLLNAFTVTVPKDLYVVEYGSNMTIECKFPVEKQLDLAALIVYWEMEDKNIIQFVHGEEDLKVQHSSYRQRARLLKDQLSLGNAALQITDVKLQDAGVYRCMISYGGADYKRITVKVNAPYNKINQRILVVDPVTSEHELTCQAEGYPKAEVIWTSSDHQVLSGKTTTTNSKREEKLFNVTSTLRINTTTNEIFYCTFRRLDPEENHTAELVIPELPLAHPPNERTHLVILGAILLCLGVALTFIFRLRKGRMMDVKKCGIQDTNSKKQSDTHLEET

ELISA signal (IgG control): 0.0777 | binding result (hB7H3-His [1]): no binding | ELISA signal (monkey B7H3-His [2]): 0.0799 | ELISA signal (hB7H3-His [3]): 0.152 | ELISA signal (rat B7H3-His [4]): 0.0986 | ELISA signal (Non-relevant antigen [5]): 0.115 | ELISA signal (monkey B7H3-His [6]): 0.578 | ELISA signal (rat B7H3-His [7]): 0.981 | ELISA signal (mouse B7H3-His): 1.05 | ELISA signal (human B7H3): 2.53 | ELISA signal (Non-relevant antigen [8]): 0.0684 | ELISA signal (PD-L1): 0.0522
B1: RWB2 (VHH)
VHH: AVQLVDSGGGSVQAGGSLRLSCVVSGYAFSTYDMAWFRQAPGEKCEWVSTVTNNGRTFYADSVKGRFIISRDNAKNILYLQMNSLKPEDTAVYSCAAAGVRWRCASGGNEGTQVTVSS
notes: Camel VHH; tag not described; also called camel antibody RWB2

EC50 (B7H3-hFc): 189 nM
B2: RFB1 (other)
VH: QEQLKESGGRLVTPGTPLTLTCTVSGFSPNNYGVSWVRQPPGKGLEWIGMSSTAGATYYANWAKGRFTISKTSTTVDLEITSPTTEDTATYFCAKGTPSLSYGNIWGPGTLVTVSSGGGGSGGGGSGGGGSAQGPTQTPGGGGSGTEVVVK
notes: Rabbit VH single-domain antibody expressed in E. coli as VH-His-FLAG fusion; also called rabbit antibody RFB1; R1-B1; not shown: 6x His tag and FLAG tag at the C-terminus
